Non-standard residues stand in square brackets, D forms with d. No end group written: not given here. Phe(4-NH2) = Nc1ccc(C[C@H](N)C(=O)O)cc1; 1Nal = N[C@@H](Cc1cccc2ccccc12)C(=O)O; Arg(Me) = CNC(=N)NCCC[C@H](N)C(=O)O; Ala(cPr) = N[C@@H](CC1CC1)C(=O)O; 4Pal = N[C@@H](Cc1ccncc1)C(=O)O; Cha = N[C@@H](CC1CCCCC1)C(=O)O; Phg = N[C@H](C(=O)O)c1ccccc1; 4Amb = NCc1ccc(C(=O)O)cc1; Nle = CCCC[C@H](N)C(=O)O; Aib = CC(C)(N)C(=O)O
T1: human Y2 receptor (human, UniProt P49146 1-381)
T1 sequence (looked up): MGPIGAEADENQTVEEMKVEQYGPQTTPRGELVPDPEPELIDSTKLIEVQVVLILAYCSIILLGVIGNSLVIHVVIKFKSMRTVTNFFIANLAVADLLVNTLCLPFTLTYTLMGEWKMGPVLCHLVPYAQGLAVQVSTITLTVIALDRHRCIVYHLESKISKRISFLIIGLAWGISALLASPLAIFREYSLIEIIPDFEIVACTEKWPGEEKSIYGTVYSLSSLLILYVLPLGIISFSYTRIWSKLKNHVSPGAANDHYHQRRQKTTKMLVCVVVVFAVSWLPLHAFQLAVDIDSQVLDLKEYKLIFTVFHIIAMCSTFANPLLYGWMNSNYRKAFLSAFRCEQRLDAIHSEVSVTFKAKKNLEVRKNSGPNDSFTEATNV

B1: 4-Aminomethylbenzoyl-[Ala26, Ile28, Phg31]-PYY(25-36) (peptide)
peptide: [4Amb]RAYINL[Phg]TRQRY-NH2
modifications: N-terminus assumed
SMILES: CC[C@H](C)[C@H](NC(=O)[C@H](Cc1ccc(O)cc1)NC(=O)[C@H](C)NC(=O)[C@H](CCCNC(=N)N)NC(=O)c1ccc(CN)cc1)C(=O)N[C@@H](CC(N)=O)C(=O)N[C@@H](CC(C)C)C(=O)N[C@H](C(=O)N[C@H](C(=O)N[C@@H](CCCNC(=N)N)C(=O)N[C@@H](CCC(N)=O)C(=O)N[C@@H](CCCNC(=N)N)C(=O)N[C@@H](Cc1ccc(O)cc1)C(N)=O)[C@@H](C)O)c1ccccc1
notes: also called compound No. 40
B2: 4-Aminomethylbenzoyl-[Ala26, Ile28, Cha31]-PYY(25-36) (peptide)
peptide: [4Amb]RAYINL[Cha]TRQRY-NH2
modifications: N-terminus assumed
SMILES: CC[C@H](C)[C@H](NC(=O)[C@H](Cc1ccc(O)cc1)NC(=O)[C@H](C)NC(=O)[C@H](CCCNC(=N)N)NC(=O)c1ccc(CN)cc1)C(=O)N[C@@H](CC(N)=O)C(=O)N[C@@H](CC(C)C)C(=O)N[C@@H](CC1CCCCC1)C(=O)N[C@H](C(=O)N[C@@H](CCCNC(=N)N)C(=O)N[C@@H](CCC(N)=O)C(=O)N[C@@H](CCCNC(=N)N)C(=O)N[C@@H](Cc1ccc(O)cc1)C(N)=O)[C@@H](C)O
notes: also called compound No. 41
B3: 4-Aminomethylbenzoyl-[Ala26, Ile28, Nle31]-PYY(25-36) (peptide)
peptide: [4Amb]RAYINL[Nle]TRQRY-NH2
modifications: N-terminus assumed
SMILES: CCCC[C@H](NC(=O)[C@H](CC(C)C)NC(=O)[C@H](CC(N)=O)NC(=O)[C@@H](NC(=O)[C@H](Cc1ccc(O)cc1)NC(=O)[C@H](C)NC(=O)[C@H](CCCNC(=N)N)NC(=O)c1ccc(CN)cc1)[C@@H](C)CC)C(=O)N[C@H](C(=O)N[C@@H](CCCNC(=N)N)C(=O)N[C@@H](CCC(N)=O)C(=O)N[C@@H](CCCNC(=N)N)C(=O)N[C@@H](Cc1ccc(O)cc1)C(N)=O)[C@@H](C)O
notes: also called compound No. 42
B4: 4-Aminomethylbenzoyl-[Ala26, Nle27, Ile28,31]-PYY(25-36) (peptide)
peptide: [4Amb]RA[Nle]INLITRQRY-NH2
modifications: N-terminus assumed
SMILES: CCCC[C@H](NC(=O)[C@H](C)NC(=O)[C@H](CCCNC(=N)N)NC(=O)c1ccc(CN)cc1)C(=O)N[C@H](C(=O)N[C@@H](CC(N)=O)C(=O)N[C@@H](CC(C)C)C(=O)N[C@H](C(=O)N[C@H](C(=O)N[C@@H](CCCNC(=N)N)C(=O)N[C@@H](CCC(N)=O)C(=O)N[C@@H](CCCNC(=N)N)C(=O)N[C@@H](Cc1ccc(O)cc1)C(N)=O)[C@@H](C)O)[C@@H](C)CC)[C@@H](C)CC
notes: also called compound No. 43
B5: 4-Aminomethylbenzoyl-[Ala26, Pya(4)27, Ile28,31]-PYY(25-36) (peptide)
peptide: [4Amb]RA[4Pal]INLITRQRY-NH2
modifications: N-terminus assumed
SMILES: CC[C@H](C)[C@H](NC(=O)[C@H](Cc1ccncc1)NC(=O)[C@H](C)NC(=O)[C@H](CCCNC(=N)N)NC(=O)c1ccc(CN)cc1)C(=O)N[C@@H](CC(N)=O)C(=O)N[C@@H](CC(C)C)C(=O)N[C@H](C(=O)N[C@H](C(=O)N[C@@H](CCCNC(=N)N)C(=O)N[C@@H](CCC(N)=O)C(=O)N[C@@H](CCCNC(=N)N)C(=O)N[C@@H](Cc1ccc(O)cc1)C(N)=O)[C@@H](C)O)[C@@H](C)CC
notes: also called compound No. 44
B6: 4-Aminomethylbenzoyl-[Ala26, Ile28,31, Aib29]-PYY(25-36) (peptide)
peptide: [4Amb]RAYI[Aib]LITRQRY-NH2
modifications: N-terminus assumed
SMILES: CC[C@H](C)[C@H](NC(=O)[C@H](CC(C)C)NC(=O)C(C)(C)NC(=O)[C@@H](NC(=O)[C@H](Cc1ccc(O)cc1)NC(=O)[C@H](C)NC(=O)[C@H](CCCNC(=N)N)NC(=O)c1ccc(CN)cc1)[C@@H](C)CC)C(=O)N[C@H](C(=O)N[C@@H](CCCNC(=N)N)C(=O)N[C@@H](CCC(N)=O)C(=O)N[C@@H](CCCNC(=N)N)C(=O)N[C@@H](Cc1ccc(O)cc1)C(N)=O)[C@@H](C)O
notes: also called compound No. 46
B7: 4-Aminomethylbenzoyl-[Ala26, Ile28,31, Aib30]-PYY(25-36) (peptide)
peptide: [4Amb]RAYIN[Aib]ITRQRY-NH2
modifications: N-terminus assumed
SMILES: CC[C@H](C)[C@H](NC(=O)[C@H](Cc1ccc(O)cc1)NC(=O)[C@H](C)NC(=O)[C@H](CCCNC(=N)N)NC(=O)c1ccc(CN)cc1)C(=O)N[C@@H](CC(N)=O)C(=O)NC(C)(C)C(=O)N[C@H](C(=O)N[C@H](C(=O)N[C@@H](CCCNC(=N)N)C(=O)N[C@@H](CCC(N)=O)C(=O)N[C@@H](CCCNC(=N)N)C(=O)N[C@@H](Cc1ccc(O)cc1)C(N)=O)[C@@H](C)O)[C@@H](C)CC
notes: also called compound No. 47
B8: [D-Ala22, Ala26, Ile28,31, Arg(Me)35]-PYY(22-36) (peptide)
peptide: [dA]SLRAYINLITRQ[Arg(Me)]Y-NH2
modifications: N-terminus assumed
SMILES: CC[C@H](C)[C@H](NC(=O)[C@H](Cc1ccc(O)cc1)NC(=O)[C@H](C)NC(=O)[C@H](CCCNC(=N)N)NC(=O)[C@H](CC(C)C)NC(=O)[C@H](CO)NC(=O)[C@@H](C)N)C(=O)N[C@@H](CC(N)=O)C(=O)N[C@@H](CC(C)C)C(=O)N[C@H](C(=O)N[C@H](C(=O)N[C@@H](CCCNC(=N)N)C(=O)N[C@@H](CCC(N)=O)C(=O)N[C@@H](CCCNC(=N)NC)C(=O)N[C@@H](Cc1ccc(O)cc1)C(N)=O)[C@@H](C)O)[C@@H](C)CC
notes: also called compound No. 3
B9: 4-Aminomethylbenzoyl-[Ala(cPr)26, Ile28,32]-PYY(25-36) (peptide)
peptide: [4Amb]R[Ala(cPr)]YINLITRQRY-NH2
modifications: N-terminus assumed
SMILES: CC[C@H](C)[C@H](NC(=O)[C@H](Cc1ccc(O)cc1)NC(=O)[C@H](CC1CC1)NC(=O)[C@H](CCCNC(=N)N)NC(=O)c1ccc(CN)cc1)C(=O)N[C@@H](CC(N)=O)C(=O)N[C@@H](CC(C)C)C(=O)N[C@H](C(=O)N[C@H](C(=O)N[C@@H](CCCNC(=N)N)C(=O)N[C@@H](CCC(N)=O)C(=O)N[C@@H](CCCNC(=N)N)C(=O)N[C@@H](Cc1ccc(O)cc1)C(N)=O)[C@@H](C)O)[C@@H](C)CC
notes: name prints Ile28,32; also called compound No. 48
B10: 4-Aminomethylbenzoyl-[Lys25, Ala26, Ile28,31]-PYY(25-36) (peptide)
peptide: [4Amb]KAYINLITRQRY-NH2
modifications: N-terminus assumed
SMILES: CC[C@H](C)[C@H](NC(=O)[C@H](Cc1ccc(O)cc1)NC(=O)[C@H](C)NC(=O)[C@H](CCCCN)NC(=O)c1ccc(CN)cc1)C(=O)N[C@@H](CC(N)=O)C(=O)N[C@@H](CC(C)C)C(=O)N[C@H](C(=O)N[C@H](C(=O)N[C@@H](CCCNC(=N)N)C(=O)N[C@@H](CCC(N)=O)C(=O)N[C@@H](CCCNC(=N)N)C(=O)N[C@@H](Cc1ccc(O)cc1)C(N)=O)[C@@H](C)O)[C@@H](C)CC
notes: also called compound No. 49
B11: 4-Aminomethylbenzoyl-[Ala26, Phe(4NH2)27, Ile28,31]-PYY(25-36) (peptide)
peptide: [4Amb]RA[Phe(4-NH2)]INLITRQRY-NH2
modifications: N-terminus assumed
SMILES: CC[C@H](C)[C@H](NC(=O)[C@H](Cc1ccc(N)cc1)NC(=O)[C@H](C)NC(=O)[C@H](CCCNC(=N)N)NC(=O)c1ccc(CN)cc1)C(=O)N[C@@H](CC(N)=O)C(=O)N[C@@H](CC(C)C)C(=O)N[C@H](C(=O)N[C@H](C(=O)N[C@@H](CCCNC(=N)N)C(=O)N[C@@H](CCC(N)=O)C(=O)N[C@@H](CCCNC(=N)N)C(=O)N[C@@H](Cc1ccc(O)cc1)C(N)=O)[C@@H](C)O)[C@@H](C)CC
notes: also called compound No. 52
B12: 4-Aminomethylbenzoyl-[Ala26, Aib27, Ile28,31]-PYY(25-36) (peptide)
peptide: [4Amb]RA[Aib]INLITRQRY-NH2
modifications: N-terminus assumed
SMILES: CC[C@H](C)[C@H](NC(=O)[C@H](CC(C)C)NC(=O)[C@H](CC(N)=O)NC(=O)[C@@H](NC(=O)C(C)(C)NC(=O)[C@H](C)NC(=O)[C@H](CCCNC(=N)N)NC(=O)c1ccc(CN)cc1)[C@@H](C)CC)C(=O)N[C@H](C(=O)N[C@@H](CCCNC(=N)N)C(=O)N[C@@H](CCC(N)=O)C(=O)N[C@@H](CCCNC(=N)N)C(=O)N[C@@H](Cc1ccc(O)cc1)C(N)=O)[C@@H](C)O
notes: also called compound No. 53
B13: 4-Aminomethylbenzoyl-[Ala26, Ile28,31, Nal(1)30]-PYY(25-36) (peptide)
peptide: [4Amb]RAYIN[1Nal]ITRQRY-NH2
modifications: N-terminus assumed
SMILES: CC[C@H](C)[C@H](NC(=O)[C@H](Cc1ccc(O)cc1)NC(=O)[C@H](C)NC(=O)[C@H](CCCNC(=N)N)NC(=O)c1ccc(CN)cc1)C(=O)N[C@@H](CC(N)=O)C(=O)N[C@@H](Cc1cccc2ccccc12)C(=O)N[C@H](C(=O)N[C@H](C(=O)N[C@@H](CCCNC(=N)N)C(=O)N[C@@H](CCC(N)=O)C(=O)N[C@@H](CCCNC(=N)N)C(=O)N[C@@H](Cc1ccc(O)cc1)C(N)=O)[C@@H](C)O)[C@@H](C)CC
notes: also called compound No. 55

These binders were tested against T1, human Y2 receptor (assay: cell-based or functional assay).

Compared with B1, B2 is lower in “GBA EC50 Ratio (vs PYY(3-36)), [35S]GTPγS” value (shortened to “GBA EC50 Ratio”): 27 ratio for the first, 8.7 ratio for the second.

Going from B3 to B4, the “GBA EC50 Ratio” value falls from 5.7 ratio to 2.3 ratio.

First: B5
Second: B6
The “GBA EC50 Ratio” value of the first is lower: 2.6 ratio for the first, 34 ratio for the second.

First: B7
Second: B8
The “GBA EC50 Ratio” value of the first is higher: 23 ratio for the first, 2.7 ratio for the second.

First: B9
Second: B10
The “GBA EC50 Ratio” value of the first is lower: 4.1 ratio for the first, 24 ratio for the second.

Going from B11 to B12, the “GBA EC50 Ratio” value rises from 5.7 ratio to 7.5 ratio.

B13 was tested, and the “GBA EC50 Ratio” value was 3 ratio.

Each binder was assayed against T1, human Y2 receptor (assay: RBA: [125I]-PYY displacement, hY2R/CHO membranes).
Summary of the method: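 Bound radioligand was collected by filtration on PEI-treated GF/C filters, washed with Tris/MgCl₂/NaCl/CHAPS buffer pH 7.4, and counted by scintillation; IC₅₀ values were calculated.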

First: B1
Second: B2
The “IC50 Ratio (vs PYY(3-36))” value of the first is higher: 71 ratio for the first, 15 ratio for the second.

First: B3
Second: B4
The “IC50 Ratio (vs PYY(3-36))” value of the first is higher: 10 ratio for the first, 4.6 ratio for the second.

First: B5
Second: B6
The “IC50 Ratio (vs PYY(3-36))” value of the first is lower: 3.8 ratio for the first, 87 ratio for the second.

Compared with B7, B8 is lower in “IC50 Ratio (vs PYY(3-36))” value: 49 ratio for the first, 6 ratio for the second.

Going from B9 to B10, the “IC50 Ratio (vs PYY(3-36))” value rises from 8.1 ratio to 34 ratio.

Compared with B11, B12 is higher in “IC50 Ratio (vs PYY(3-36))” value: 11 ratio for the first, 18 ratio for the second.

With B13 the “IC50 Ratio (vs PYY(3-36))” value was 3.4 ratio.

Source: patent US20120172293A1 (Takeda / Millennium, published 2012)
